Assay results reported in PMC5660092.

Target: Bcl-2 (UniProt P10415)
Assay: co-IP of Flag-Beclin 1
Details: reference: wild type; sites S90

Question: How did the “binding against the reference” value turn out when Beclin 1 (from UniProt Q14457) S90A was run?
Answer: stronger
